Measured values taken from US7005283B2, “Cytochrome P450 oxygenases and their uses” (Washington State University Research Foundation, priority 1999, dated 2006).

Experiments:
[1] = In vivo assay of yeast cells expressing recombinant oxygenases, radio-HPLC, substrate taxadiene; format: cell-based, Saccharomyces cerevisiae; settings: assayed with Taxadiene; graded symbols, key not given
Source text: (§1) Transformed yeast cells that fimctionally express a recombinant cytochrome P450 gene from Taxus (by CO-difference spectrum) can be tested in vivo for their ability to oxygenate (hydroxylate or epoxidize) taxoid substrates fed exogenously to the cells, thereby eliminating the need for microsome isolation for preliminary in vitro assays.
(§2) Accordingly, several clones of the available full-length clones were expressed in induced yeast host cells.
(§3) Isolated transformants for each full-length cytochrome P450 clone shown to express a functional enzyme by CO-difference spectrum (ten clones) were grown to stationary phase in 2 mL SGI medium at 30° C. and used to inoculate a 10-mL expression culture (in YPL medium). Approximately 8 hours after induction, cells were harvested by centrifugation (10 minutes at 1500 rpm), and the pellet was resuspended in 2 mL of fresh YPL medium.
(§4) To eliminate additional complication and uncertainty associated with microsome isolations for in vitro assays, 10^6 dpm of [20-^3H3]taxa-4(5),11(12)-diene (16 Ci/mol) or [20-^3H2]taxa-4(20),11(12)-diene-5-α-ol (4.0 Ci/mol), or other taxoid substrate were added directly to the cell suspension to assay conversion in vivo. After 12 hours of incubation at 30° C. with agitation (250 rpm), the mixture was treated for 15 minutes in a sonication bath and extracted 3 times with 2 mL diethyl ether to insure isolation of the biosynthetic products. These ether extracts, containing residual substrate and derived product(s), were concentrated to dryness, resuspended in 200 μL of CH3CN, and filtered. These samples were analyzed by radio-HPLC (Hefner et al., Chemistry and Biology 3:479–489, 1996) using a 4.6 mm i.d.×250 mm column of Econosil C18, 5 μ (Alltech, Deerfield, Ill.) with a gradient of CH3CN in H2O from 0% to 85% (10 minutes at 1 mL/minute), then to 100% CH3CN over 40 minutes.

[2] = format: binding, Saccharomyces cerevisiae
Source text: CO-sensor of the 19 full-length cytochrome P450 clones from Taxus, thus far obtained, ten have yielded detectable CO-difference spectra (Table 2). […] These alternative expression systems for cytochrome P450 genes include the yeast Pichia pastoris, for which expression vectors and hosts are commercially available (Invitrogen, Carlsbad, Calif.), as well as established E. coli and baculovirus-insect cell systems for which general expression procedures have been described (Barnes, Methods Enzymol. 272:1–14, 1996;Gonzalez et al., Methods Enzymol. 206:93–99, 1991;Lee et al., Methods Enzymol. 272:86–98, 1996;and Lupien et al., Arch. Biochem. Biophys. 368:181–192, 1999).
Appropriate restriction sites were introduced by standard PCR methods (Innis et al., PCR Protocols: A Guide to Methods and Applications, Academic Press, San Diego, Calif., 1990) immediately upstream of the ATG start codon and downstream of the stop codon of all full-length cytochrome P450 clones. These modified amplicons were gel-purified, digested with the corresponding restriction enzymes, and then ligated into the expression vector pYeDP60. The vector/insert junctions were sequenced to ensure that no errors had been introduced by the PCR construction. Verified clones were transformed into yeast using the lithium acetate method (Ito et al., J. Bacteriol. 153:163–168, 1983). Isolated transformants were grown to stationary phase in SGI medium (Pompon et al., Methods Enzymol. 272:51–64, 1996), and used as inocula for a large-scale expression culture grown in YPL medium (Pompon et al., Methods Enzymol. 272:51–64, 1996). Approximately 24 hours after induction of cytochrome P450 expression with galactose (to 10% final concentration), a portion of the yeast cell culture was harvested by centrifugation. One-half of the culture was treated with carbon monoxide, and the cytochrome P450 CO-difference spectrum was recorded directly (using untreated cells as a control) by spectrophotometry (Omura and Sato, J. Biol. Chem. 239:2370–2378, 1964).

[3] = In vivo assay of yeast cells expressing recombinant oxygenases, radio-HPLC, substrate taxadienyl acetate; format: cell-based, Saccharomyces cerevisiae; settings: for product identified HPLC peak: assayed with Taxadienyl Ac, graded symbols, key not given
Protocol: (§5) Transformed yeast cells that functionally express a recombinant cytochrome P450 gene from Taxus (by CO-difference spectrum) were tested in vivo for their ability to oxygenate (hydroxylate or epoxidize) taxoid substrates fed exogenously, thereby eliminating the need for microsome isolation for such a preliminary in vitro assay. […] The ether extracts resulting from these incubations were analyzed by radio-HPLC. Several clones converted the taxadienyl-5α-yl acetate substrate to a more polar product.
as §3, §4

[4] = In vivo assay of yeast cells expressing recombinant oxygenases, radio-HPLC, substrate taxadien-5α-ol; format: cell-based, Saccharomyces cerevisiae; settings: for product identified HPLC peak: assayed with Taxadien5αol, graded symbols, key not given
Source text: as §1, §2, §3, §4

[5] = In vivo screening of functionally expressed clones in yeast with taxoid substrates (general statements); format: cell-based, Saccharomyces cerevisiae
Source text: as §1, §2, §5
as §3, with “medium. […]” for “medium.”

[6] = yeast transformants, radio-HPLC and GC-MS

Row | Molecule | product identified HPLC peak [1] | CO diff. spec. [2] | product identified HPLC peak [3] | product identified HPLC peak [4] | product formed from taxadien-5α-yl acetate [3, 6] | product formed from taxadien-5α-ol [4, 6] | enzyme function assigned from screening ([5]; taxadienol and taxadienyl acetate as test substrates) | CO-difference spectrum [2] | oxygenation of taxoid substrates ([5]; in vivo)
1 | clone F31: Taxus cuspidata cytochrome P450 oxygenase, full-length clone, SEQ ID NO: 46 (nt) / 59 (aa) (protein, listed as Taxus cuspidata) MDALSLVNSTVAKFNEVTQLQASPAILSTALTAIAGIIVLLVITSKRRSSLKLPPGKLGLPFIGETLEFVKALRSDTLRQFVEEREGKFGRVFKTSLLGKPTVILCGPAGNRLVLSNEEKLLHVSWSAQIARILGLNSVAVKRGDDHRVLRVALAGFLGSAGLQLYIGKMSALIRNHINEKWKGKDEVNVLSLVRDLVMDNSAILFFNIYDKERKQQLHEILKIILASHFGIPLNIPGFLYRKALKGSLKRKKILSALLEKRKDELRSRLASSNQDLLSVLLSFRDERGKPLSDEAVLDNCFAMLDASYDTTTSQMTLILKMLSSNPECFEKVVQEQLEIASNKKEGEEITMKDIKAMKYTWQVLQESLRMLSPVFGTLRKTMNDINHDGYTIPKGWQVVWTTYSTHQKDIYFKQPDKFMPSRFEEEDGHLDAYTFVPFGGGRRTCPGWEYAKVEILLFLHHFVKAFSGYTPTDPHERICGYPVPLVPVKGFPIKLIARS | No | + | No | No |  |  |  |  | 
2 | clone F14: Taxus cuspidata cytochrome P450 taxane 10β-hydroxylase, full-length clone, SEQ ID NO: 51 (nt) / 64 (aa) (protein, listed as Taxus cuspidata) MDSFIFLRSIGTKFGQLESSPAILSLTLAPILAIILLLLFRYNHRSSVKLPPGKLGFPLIGETIQLLRTLRSETPQKFFDDRLKKFGPVYMTSLIGHPTVVLCGPAGNKLVLSNEDKLVEMEGPKSFMKLIGEDSIVAKRGEDHRILRTALARFLGAQALQNYLGRMSSEIGHHFNEKWKGKDEVKVLPLVRGLIFSIASTLFFDVNDGHQQKQLHHLLETILVGSLSVPLDFPGTRYRKGLQARLKLDEILSSLIKRRRRDLRSGIASDDQDLLSVLLTFRDEKGNSLTDQGILDNFSAMFHASYDTTVAPMALIFKLLYSNPEYHEKVFQEQLEIIGNKKEGEEISWKDLKSMKYTWQAVQESLRMYPPVFGIFRKAITDIHYDGYTIPKGWRVLCSPYTTHLREEYFPEPEEFRPSRFEDEGRHVTPYTYVPFGGGLRTCPGWEFSKIEILLFVHHFVKNFSSYIPVDPNEKVLSDPLPPLPANGFSIKLFPRS | No | +++ |  |  | taxadien-diol monoacetate | diol products | cytochrome P450 taxane-10β-hydroxylase |  | 
3 | clone F21: Taxus cuspidata cytochrome P450 oxygenase, full-length clone, SEQ ID NO: 44 (nt) / 57 (aa) (protein, listed as Taxus cuspidata) MLIEMDTFVQLESSPVLLSLTLTLILLFIFCSKQYRSSLKLPPGNMGFPLIGETIALASQTPDKFFGDRMKKFGKVFKTSLIGHPTIVLCGSSGNRFLLSNEEKLVRMFPPNSSSKLLGQDSVLGKIGEEHRIVRTALARCLGPQALQNYVSKMSSEIQRHINQKWKGKGEVKMLPLIRSLVFSIATSLFFGITDEQQQERLHHLLETVVTGLLCIPLDFPGTTFRKALHARSKLDEIMSSVIERRRNDLRLGAASSDQDLLSVLLTFKDERGNPFADKEILDNFSFLLHALYDTTISPLTLVFKLVSSNPECYENIAQEQLEILRNKKDGEDISWADLKDMKYTWQAVQETLRMCPPVYGNFRKALTDIHYDGYTIPKGWRILCSPYTTHSKEEYFDDPEKFRPSRFEEQGRDVAPYTFIPFGGGLRICPGREFAKMEILVFMHHFVKAFSSFIPVDPNEKISTDPLPSIPVNGFSINLVPRS | No | + | No |  |  |  |  |  | 
4 | clone F34: Taxus cuspidata cytochrome P450, outlying full-length clone, SEQ ID NO: 53 (nt) / 66 (aa) (protein, listed as Taxus cuspidata, X: residue not identified in the source; ends and bridges not checked) MAYPELLENLSGDRAQSPAIAAVLTILFLLGIFYILRGLRNNGRRLPPGPIPWPIVGNLHQLGKLPNRNLEELAKKHGPIMLMKLGSVPAVIVSSSAMAKEVLKTHDLVFASRPESAAGKYIAYNYKDIVFSPYGPYWRQMKKICVVELLNARRIESLRSVREEEVSVIIRSVWEKSKQGAVAVNLSKTLSSLTQGLMLQIFSSNDDGGNSSVTAIKEMMSEVSETAGAFNIGDYFPWMDWMDLQGIQRRMTKAHDYFDQVITKIIEQHQRTRAMEDTQQPKDIIDALLQMENTDGVTITMENIKAVVLGIFLGGAETTSTTLEWAMSAMLENPEVAKKVQEEIESVVGRKRVVKEMIWESMEYLQCVVKKTMRLYPAVPLLIPHESTQDCTVNGYFIPERTRILVNAWAIGKDPNVWDDALAFKPKRFLGXNVDLQKGKEFFDMVPFGAGRKGCPGASMAVVTMEHALAQLMHCFQWRIEGELDMSERLAASVQKKVDLCVLPQWRLTSSP | No | ++ |  | No |  |  |  | reliable CO-difference spectrum | does not transform the taxoid substrates to oxygenated products
